Data: patent US20200010508A1 (REGENTS OF THE UNIVERSITY OF MICHIGAN, published 2020)
Ends that are not written are not given here.

B1: unlabeled ALL* peptide (ALLANHEELFQT) (peptide)
peptide: ALLANHEELFQT
B2: QLE*-Cy5.5 scrambled control peptide (QLELTFHANLEA-GGGSK-Cy5.5) (peptide)
peptide: QLELTFHANLEAGGGSK(sulfo‑Cy5.5)
B3: ALL*-Cy5.5 peptide reagent (ALLANHEELFQT-GGGSK-Cy5.5) (peptide)
peptide: ALLANHEELFQTGGGSK(sulfo‑Cy5.5)
notes: also called lead candidate GPC3 peptide; optimized GPC3 peptide

Columns and labels:
[1] = molecular target: T1, Glypican-3 on human HCC cells (Hep3B, HepG2) and in HCC tissue (human, UniProt P51654 25-554); experiment: cell-based or functional assay
T1 sequence (P51654 25-554 limits assumed): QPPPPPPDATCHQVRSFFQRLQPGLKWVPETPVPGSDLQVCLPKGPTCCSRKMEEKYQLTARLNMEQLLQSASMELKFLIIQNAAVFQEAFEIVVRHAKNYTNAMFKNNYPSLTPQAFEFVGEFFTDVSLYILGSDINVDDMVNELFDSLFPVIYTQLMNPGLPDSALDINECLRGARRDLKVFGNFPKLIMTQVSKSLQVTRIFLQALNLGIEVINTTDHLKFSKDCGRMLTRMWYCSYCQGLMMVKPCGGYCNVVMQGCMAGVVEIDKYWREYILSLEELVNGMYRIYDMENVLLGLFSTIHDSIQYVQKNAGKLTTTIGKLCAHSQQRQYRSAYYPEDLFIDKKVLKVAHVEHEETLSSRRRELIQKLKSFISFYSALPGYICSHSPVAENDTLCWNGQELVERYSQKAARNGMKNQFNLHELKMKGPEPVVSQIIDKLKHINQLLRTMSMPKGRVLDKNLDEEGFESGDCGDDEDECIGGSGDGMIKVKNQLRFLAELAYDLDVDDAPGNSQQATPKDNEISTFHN

[2] = molecular target: T1, Glypican-3 on human HCC cells (Hep3B, …); experiment: confocal microscopy, Hep3B siGPC3 vs siCL
Description: The specificity of lead candidate peptide reagent binding was validated by siRNA knockdown of GPC3 in human HCC cells. The cells were transfected with siRNA to knockdown cell surface expression of GPC3. […] These cells were transfected with non-targeting siRNA (siCL) for use as control. […] FIG. 6-1D,E show ˜4-fold reduction in fluorescence intensity with both the peptide reagent and anti-GPC3 antibody, respectively, for Hep3B cells transfected with siRNA (siGPC3) to knock down GPC3 expression. […] FIG. 6-2M, N, O and P show the same result as original FIG. 6-1A, B, D and E.

[3] = molecular target: T1, Glypican-3 on human HCC cells (Hep3B, …); experiment: confocal microscopy on cells, ANOVA on log-transformed data
Description: (§1) FIGS. 6-2A-Q show validation of specific peptide binding to cells in vitro. On confocal microscopy, we observed strong fluorescence intensity from ALL*-Cy5.5 binding to the surface (arrow) of A) Hep3B and B) HepG2 human HCC cells, and minimal signal with C) SK-Hep1 cells. D-F) Minimal signal is observed with the scrambled control peptide QLE*-Cy5.5 for all cells. Strong binding (arrow) is also observed with AF488-labeled anti-GPC3 antibody used as a positive control for G) Hep3B and H) HepG2 and minimal signal with I) SK-Hep1. […] The Hep3B versus SK-Hep1 difference was also larger for antibody than QLE (P=2.3×10⁻⁸, 6.0-fold larger). Intensity was measured with 6 replicates per condition and fitted to an ANOVA model with terms for 9 means to log-transformed data. […] We further validated specific peptide binding to GPC3 using siRNA knockdown. […] Q) Quantified fluorescence intensities. The siCL vs siGPC3 difference was 7.4 times bigger for ALL than the same difference for QLE (P=7.8×10⁻⁵), and the difference for antibody was 8.9 times bigger than for QLE (P=2.5×10⁻⁵), by ANOVA on log-transformed data. Results are an average of 6 images collected independently.

[4] = molecular target: T1, Glypican-3 on human HCC cells (Hep3B, …); experiment: confocal microscopy on Hep3B cells with siRNA knockdown of GPC3
Description: as §1, with “On” for “FIGS. 6-2A-Q show validation of specific peptide binding to cells in vitro. On”
The specificity of lead candidate peptide reagent binding was validated by siRNA knockdown of GPC3 in human HCC cells. The cells were transfected with siRNA to knockdown cell surface expression of GPC3. […] These cells were transfected with non-targeting siRNA (siCL) for use as control.

[5] = molecular target: T1, Glypican-3 on human HCC cells (Hep3B, …); experiment: immunofluorescence on human biopsies, ANOVA on log-transformed data
[6] = molecular target: T1, Glypican-3 on human HCC cells (Hep3B, …); experiment: confocal microscopy of xenograft and normal mouse liver sections, n=26
Description: FIGS. 13A-I show validation of specific peptide binding to GPC3 overexpressed in mouse HCC xenograft tumors. Confocal microscopy of A) ALL*-Cy5.5 compared to B) QLE*-Cy5.5 to sections of Hep3B xenograft tumors. Fluorescence intensities were measured from sets of 3 (dashed white) boxes with dimensions of 20×20 μm2.
The specimens were also sectioned for collection of confocal images to perform microscopic validation of peptide binding ex vivo. We found increased cell surface staining of ALL*-Cy5.5 compared with QLE*-Cy5.5 to Hep3B xenograft (arrow), FIG. 13A,B. Overexpression of GPC3 on cell surface of Hep3B xenograft was confirmed with known antibody, FIG. 13C.

[7] = molecular target: T1, Glypican-3 on human HCC cells (Hep3B, …); experiment: affinity restated in the discussion of the studies (flow cytometry on Hep3B cells)
Description: (§2) The apparent dissociation constant (kd) was measured for the optimized GPC3 peptide to Hep3B cells to provide an assessment of peptide binding affinity. The ALL*-Cy5.5 peptide reagent was serially diluted in PBS at concentrations ranging from 0 to 200 nM in 25 nM increments and incubated with Hep3B cells. The mean fluorescence intensities was measured on flow cytometry. The equilibrium dissociation constant kd=1/kₐ was calculated by performing a least squares fit of the data to the non-linear equation I=(I₀+Iₘₐₓkₐ[X])/([…]). I₀and Iₘₐₓ are the initial and maximum fluorescence intensities, corresponding to no peptide and at saturation, respectively, and [X] represents the concentration of the bound peptide.

[8] = molecular target: T1, Glypican-3 on human HCC cells (Hep3B, …); experiment: flow cytometry, mean fluorescence of Hep3B cells with 0-200 nM peptide; apparent dissociation constant
Description: as §2

| Binder | reduction of T/B ratio of ALL*-Cy5.5 by blocking with 3-fold unlabeled targeting peptide dose [1] [fold] | reduction of T/B ratio of ALL*-Cy5.5 by blocking with 10-fold unlabeled targeting peptide dose [1] [fold] | target-to-background (T/B) ratio at 2 hours, in vivo whole-body NIR fluorescence imaging of Hep3B xenograft [1] | target-to-background ratio, in vivo NIR laparoscopy of Hep3B xenograft 2 hours after injection [1] | fluorescent intensity of ALL*-Cy5.5 against control peptide QLE*-Cy5.5, in vivo dual axes confocal endomicroscopy [1] [fold] | target-to-background ratio of ALL*-Cy5.5 against QLE*-Cy5.5, in vivo NIR laparoscopy [1] [fold] | fold reduction in fluorescence intensity on GPC3 knockdown [2] [fold] | fold, intensity difference Hep3B vs SK-Hep1 against the same difference for QLE* [3] [fold] | fold, intensity difference HepG2 vs SK-Hep1 against the same difference for QLE* [3] [fold] | fold, siCL vs siGPC3 difference against the same difference for QLE [4] [fold] | fold, signal in human HCC against adenoma [5] [fold] | fold, signal in human HCC against cirrhosis [5] [fold] | fold, signal in human HCC against normal liver [5] [fold] | fold, intensity from peptide binding to HCC (Hep3B xenograft) against normal liver [6] [fold] | Kd [7] [nM] | Kd [8] [nM] |
| --- | --- | --- | --- | --- | --- | --- | --- | --- | --- | --- | --- | --- | --- | --- | --- | --- |
| B1 | 1.65 | 3.56 |  |  |  |  |  |  |  |  |  |  |  |  |  |  |
| B2 |  |  | 1.12 | 3 |  |  |  |  |  |  |  |  |  |  |  |  |
| B3 |  |  | 3.91 | 8.3 | 2.9 | 2.8 | ~4 | 8.2 | 3.3 | 7.4 | 2.48 | 2.05 | 3.43 | 2.22 | 71.3 | 71 |
